Values of other authors, collected in paper PMC9477365.

Experiments:
[1] = target: fibrin (gamma' site) gamma' chain (Homo sapiens) (UniProt P02671)
[2] = target: fibrin (E domain site) E domain (Homo sapiens) (UniProt P02671)

- Kd [1]: 9 µM
- Kd [2]: 2.8 µM
Substance: thrombin (from UniProt P00734)
